Test results taken from publication PMC2139825.
pKd: −log10 of the molar value.

Target: bacterially expressed full-length chicken CRP1 (chicken) (UniProt P67966)
Assay: radioligand binding

UniProt P67966, sequence (P67966 whole entry): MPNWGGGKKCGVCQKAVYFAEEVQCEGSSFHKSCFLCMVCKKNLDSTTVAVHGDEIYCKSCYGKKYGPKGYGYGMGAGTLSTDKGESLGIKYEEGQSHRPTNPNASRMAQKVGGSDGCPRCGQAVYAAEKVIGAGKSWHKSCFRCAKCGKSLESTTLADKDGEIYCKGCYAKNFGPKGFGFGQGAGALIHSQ

Substance: α-actinin (avian smooth muscle) (from UniProt P05094 1-893) (natural protein)
- pKd: 5.74
- cpm bound specifically (0.26 pmoles [125I]α-actinin in 120 μl, no competitor): 3080 cpm
